Like-named read-outs stand apart in the source and are kept apart here.
Legend:
Test in all cases: native MS
[1] = target: protein kinase A regulatory type II (RII) subunit (UniProt P12367)
[2] = target: protein kinase A regulatory type II (RII) subunit (UniProt P12367); remark: listed apart in the source
[3] = target: AKAP79(297-427) (UniProt P24588)
Chain of UniProt P24588 (P24588 297-427): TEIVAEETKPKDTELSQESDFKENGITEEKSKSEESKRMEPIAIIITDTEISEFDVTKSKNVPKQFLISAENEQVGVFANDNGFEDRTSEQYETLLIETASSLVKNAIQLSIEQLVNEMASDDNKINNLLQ

stoichiometry N (RII chains in the oligomer) [1]: 2
stoichiometry N (RII chains in the oligomer) [2]: 2
stoichiometry N (RII chains per AKAP79(297-427)) [3]: 2
Substance: protein kinase A regulatory type II (RII) subunit (from UniProt P12367 1-401) (natural protein)

— PMC5693252
